Experimental data taken from patent publication US20240293478A1 (ACTYM THERAPEUTICS, published 2024).

T1: Human DLL3 (R&D Systems) (human, UniProt Q9NYJ7 27-492, limits assumed)
T1 sequence (looked up): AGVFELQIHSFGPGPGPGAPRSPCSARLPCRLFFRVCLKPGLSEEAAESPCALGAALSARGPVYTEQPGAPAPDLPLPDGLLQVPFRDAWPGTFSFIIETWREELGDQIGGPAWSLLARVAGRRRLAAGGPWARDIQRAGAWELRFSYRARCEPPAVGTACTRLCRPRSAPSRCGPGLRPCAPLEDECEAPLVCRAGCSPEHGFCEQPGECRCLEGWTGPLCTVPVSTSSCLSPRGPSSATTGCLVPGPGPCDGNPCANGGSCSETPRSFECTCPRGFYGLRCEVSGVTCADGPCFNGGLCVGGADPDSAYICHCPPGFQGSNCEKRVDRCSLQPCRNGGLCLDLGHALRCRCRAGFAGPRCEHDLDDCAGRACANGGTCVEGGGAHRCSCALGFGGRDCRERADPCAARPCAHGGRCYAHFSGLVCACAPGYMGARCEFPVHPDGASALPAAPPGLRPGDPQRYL

T2: DLL3 on SHP77 cells (UniProt Q9NYJ7 27-618, limits assumed)
T2 construct: whole, on cells; also called delta-like ligand 3
T2 sequence (looked up): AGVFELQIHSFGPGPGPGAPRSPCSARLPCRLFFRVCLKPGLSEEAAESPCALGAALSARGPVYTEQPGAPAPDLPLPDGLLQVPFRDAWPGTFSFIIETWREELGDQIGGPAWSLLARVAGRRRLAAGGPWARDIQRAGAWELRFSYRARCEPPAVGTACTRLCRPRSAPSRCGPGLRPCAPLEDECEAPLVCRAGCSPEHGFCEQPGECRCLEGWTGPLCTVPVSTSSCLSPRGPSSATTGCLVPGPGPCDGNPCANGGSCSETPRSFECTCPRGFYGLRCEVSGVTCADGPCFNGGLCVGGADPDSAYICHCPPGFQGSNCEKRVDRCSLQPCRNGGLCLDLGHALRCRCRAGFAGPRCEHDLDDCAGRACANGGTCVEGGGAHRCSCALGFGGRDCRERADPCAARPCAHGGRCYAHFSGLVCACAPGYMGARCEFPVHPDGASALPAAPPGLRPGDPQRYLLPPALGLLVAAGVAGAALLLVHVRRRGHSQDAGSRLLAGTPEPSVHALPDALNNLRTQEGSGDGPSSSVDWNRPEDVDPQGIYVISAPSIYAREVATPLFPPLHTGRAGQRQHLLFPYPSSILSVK


Key:
Human DLL3 (R&D Systems) [1] = target: T1, Human DLL3 (R&D Systems); assay: bridging ELISA: human DLL3 coated at 1 ug/ml, HEK293T supernatant, detection by human IgG Fc conjugated CD3e + anti-human-HRP (signal needs binding to both DLL3 and CD3e); untransfected 0.010
Protocol: (§1) The expressed DLL3×CD3 bispecific T-cell engagers also were evaluated for binding to DLL3 and to CD3 with an ELISA. This ELISA was developed to detect correctly folded DLL3×CD3 bispecific T-cell engager binding to DLL3 and CD3 in the same assay. Human DLL3 (R&D Systems) was coated overnight at 4° C. on a high protein-binding 96-well plate, at a concentration of 1 ug/ml. The wells then were washed three times with PBS 0.05% Tween-20, and the wells were blocked with ELISA blocking buffer for 1 hour at room temperature. The wells then were washed three times with PBS 0.05% Tween-20. HEK293T cell culture supernatants, containing the DLL3×CD3 bispecific T-cell engagers, were added to the wells and incubated for 2 hours at room temperature. The wells were washed three times with PBS 0.05% Tween-20, and human IgG Fc conjugated CD3e was added to the wells (Acro Biosystems), and incubated for one hour at room temperature. The wells again were washed three times with PBS 0.05% Tween-20, and horseradish peroxidase (HRP)-conjugated anti-human antibody was added for a 1 hour incubation. The wells were then washed three times with PBS 0.05% Tween-20, and detection reagent (3,3′,5,5′-tetramethylbenzidine (TMB), Thermo Fisher Scientific) was added to the wells. The enzymatic reaction was stopped with sulfuric acid (BioLegend), and the optical densities were read at 450 nm.

DLL3 on SHP77 cells [2] = target: T2, DLL3 on SHP77 cells; assay: flow cytometry on SHP77 cells, concentrated HEK supernatant, Protein L biotin + Streptavidin APC; percent APC positive cells
Protocol: (§2) 500,000 SHP77 cells were seeded in wells of a V-bottom 96-well plate. The cells were washed once with PBS+2% FBS by centrifugation at 1300 RPM for 3 minutes. The cells were resuspended in 50 uL PBS+2% FBS containing concentrated HEK supernatant corresponding to either untransfected cells or cells transfected with a BiTE. After 30 minutes, the cells were washed twice with PBS+2% FBS by centrifugation at 1300 RPM for 3 minutes. The cells were then resuspended in 50 uL PBS+2% FBS containing either anti-Flag biotin (Sigma) at 1:100 dilution or Protein L biotin (Genscript) at 1:200 dilution, and incubated on ice for 30 minutes. The cells were washed twice with PBS+2% FBS by centrifugation at 1300 RPM for 3 minutes. Subsequently, the cells were stained with Streptavidin APC (Biolegend) at 1:200 dilution and incubated on ice for 30 minutes in the dark.
(§3) The cells were washed twice with PBS+2% FBS by centrifugation at 1300 RPM for 3 minutes and resuspended in DAPI diluted 1:6000 in PBS+2% FBS. Flow cytometry data were acquired using the ACEA NovoCyte® flow cytometer (ACEA Biosciences, Inc.), and analyzed using the FlowJo™ software (Tree Star, Inc.).

DLL3 on SHP77 cells [3] = target: T2, DLL3 on SHP77 cells; assay: flow cytometry on SHP77 cells, concentrated HEK supernatant, anti-Flag biotin + Streptavidin APC; percent APC positive cells
Protocol: as §2, §3

Human DLL3 (R&D Systems) [4] = target: T1, Human DLL3 (R&D Systems); assay: bridging ELISA (human DLL3 coated, CD3e-Fc detection) with engagers purified on ANTI-FLAG M2 Affinity Gel
Protocol: as §1
The table below provides the results of this ELISA, shown as the absorbance at 450 nm. All of the SC16.56 DLL3LH×CD3HL, SC16.34 DLL3HL×CD3HL, and SC16.34 DLL3LH×CD3HL BiTE antibodies were detected, showing that these BiTEs antibodies are fully functional. […] In a separate experiment, the bispecific T-cell engagers were purified using ANTI-FLAG M2 Affinity Gel (Sigma) and run on this ELISA. SC16.34 DLL3LH×CD3HL was the only purified BiTE to show ELISA signal above background.

Absorbance at 450 nm (Human DLL3 (R&D Systems) [1])	% Binding to SHP77 Detected by Protein L (DLL3 on SHP77 cells [2]) [%]	% Binding to SHP77 Detected by anti-Flag (DLL3 on SHP77 cells [3]) [%]	binding result (Human DLL3 (R&D Systems) [4])	Binder
0.253 absorbance (450 nm)	36.6	19.6		SC16.34 DLL3HL×CD3HL (bispecific antibody, the leader is left out here; Tested as HEK293T supernatant; also called SC16.34 DLL3HLxCD3HL BiTE) QIQLVQSGPELKRPGETVKISCKASGYTFTNYGMNWVKQAPGKGLKWMGWINTYTGDPTYADDFKGRFAFSLETSASTAYLQINNLKNEDTATYFCARIGGNSPSDYWGQGTSLTVSSGGGGSGGGGSGGGGSSIVMTQTPKFLLVSAGDRVTITCKASQSVSNDVAWYQQKPGQSPKLLIYYASNRYSGVPDRFTGSGYGTDFTFTISTVQAEDLAVYFCQQDYSSPWTFGGGTKLEIKGGGGSEVQLVESGGGLVQPGKSLKLSCEASGFTFSGYGMHWVRQAPGRGLESVAYITSSSINIKYADAVKGRFTVSRDNAKNLLFLQMNILKSEDTAMYYCARFDWDKNYWGQGTMVTVSSGGGGSGGGGSGGGGSDIQMTQSPSSLPASLGDRVTINCQASQDISNYLNWYQQKPGKAPKLLIYYTNKLADGVPSRFSGSGSGRDSSFTISSLESEDIGSYYCQQYYNYPWTFGPGTKLEIKDYKDDDDK
0.002 absorbance (450 nm)			no binding	SC16.15 DLL3HL×CD3HL (bispecific antibody, the leader is left out here; Tested as HEK293T supernatant; also called SC16.15 DLL3HLxCD3HL BiTE) QVQLQQSGAELAKPGASVKMSCKASGYTFTRYWIHWIKQRPGQGLEWIGYINPTTVYTEFNQNFKDKATLTADKSSTTASMQLSSLTSEDSAVYYCARGGSNFFDYWGQGTTLTVSSGGGGSGGGGSGGGGSDIQMTQSPASLAASVGETVAITCRASENIYYNLAWYQQKQGKSPQLLIYTANSLEDGVPSRFSGSGSGTQYSLKINSMQPEDSATYFCKQAYDVPPTFGGGTKLEIKGGGGSEVQLVESGGGLVQPGKSLKLSCEASGFTFSGYGMHWVRQAPGRGLESVAYITSSSINIKYADAVKGRFTVSRDNAKNLLFLQMNILKSEDTAMYYCARFDWDKNYWGQGTMVTVSSGGGGSGGGGSGGGGSDIQMTQSPSSLPASLGDRVTINCQASQDISNYLNWYQQKPGKAPKLLIYYTNKLADGVPSRFSGSGSGRDSSFTISSLESEDIGSYYCQQYYNYPWTFGPGTKLEIKDYKDDDDK
1.46 absorbance (450 nm)	36.4	20.1		SC16.34 DLL3LH×CD3HL (bispecific antibody, the leader is left out here; also called SC16.34 DLL3LHxCD3HL BiTE) SIVMTQTPKFLLVSAGDRVTITCKASQSVSNDVAWYQQKPGQSPKLLIYYASNRYSGVPDRFTGSGYGTDFTFTISTVQAEDLAVYFCQQDYSSPWTFGGGTKLEIKGGGGSGGGGSGGGGSQIQLVQSGPELKRPGETVKISCKASGYTFTNYGMNWVKQAPGKGLKWMGWINTYTGDPTYADDFKGRFAFSLETSASTAYLQINNLKNEDTATYFCARIGGNSPSDYWGQGTSLTVSSGGGGSEVQLVESGGGLVQPGKSLKLSCEASGFTFSGYGMHWVRQAPGRGLESVAYITSSSINIKYADAVKGRFTVSRDNAKNLLFLQMNILKSEDTAMYYCARFDWDKNYWGQGTMVTVSSGGGGSGGGGSGGGGSDIQMTQSPSSLPASLGDRVTINCQASQDISNYLNWYQQKPGKAPKLLIYYTNKLADGVPSRFSGSGSGRDSSFTISSLESEDIGSYYCQQYYNYPWTFGPGTKLEIKDYKDDDDK
0.007 absorbance (450 nm)			no binding	SC16.56 DLL3HL×CD3HL (bispecific antibody, the leader is left out here; Tested as HEK293T supernatant; also called SC16.56 DLL3HLxCD3HL BiTE) QIQLVQSGPELKKPGETVKISCKASGYTFTNYGMNWVKQAPGKGLKWMAWINTYTGEPTYADDFKGRFAFSLETSASTASLQIINLKNEDTATYFCARIGDSSPSDYWGQGTTLTVSSGGGGSGGGGSGGGGSSIVMTQTPKFLLVSAGDRVTITCKASQSVSNDVVWYQQKPGQSPKLLIYYASNRYTGVPDRFAGSGYGTDFSFTISTVQAEDLAVYFCQQDYTSPWTFGGGTKLEIRGGGGSEVQLVESGGGLVQPGKSLKLSCEASGFTFSGYGMHWVRQAPGRGLESVAYITSSSINIKYADAVKGRFTVSRDNAKNLLFLQMNILKSEDTAMYYCARFDWDKNYWGQGTMVTVSSGGGGSGGGGSGGGGSDIQMTQSPSSLPASLGDRVTINCQASQDISNYLNWYQQKPGKAPKLLIYYTNKLADGVPSRFSGSGSGRDSSFTISSLESEDIGSYYCQQYYNYPWTFGPGTKLEIKDYKDDDDK
0.175 absorbance (450 nm)	36.4	20.9		SC16.56 DLL3LH×CD3HL (bispecific antibody, the leader is left out here; Tested as HEK293T supernatant; also called SC16.56 DLL3LHxCD3HL BiTE) SIVMTQTPKFLLVSAGDRVTITCKASQSVSNDVVWYQQKPGQSPKLLIYYASNRYTGVPDRFAGSGYGTDFSFTISTVQAEDLAVYFCQQDYTSPWTFGGGTKLEIRGGGGSGGGGSGGGGSQIQLVQSGPELKKPGETVKISCKASGYTFTNYGMNWVKQAPGKGLKWMAWINTYTGEPTYADDFKGRFAFSLETSASTASLQIINLKNEDTATYFCARIGDSSPSDYWGQGTTLTVSSGGGGSEVQLVESGGGLVQPGKSLKLSCEASGFTFSGYGMHWVRQAPGRGLESVAYITSSSINIKYADAVKGRFTVSRDNAKNLLFLQMNILKSEDTAMYYCARFDWDKNYWGQGTMVTVSSGGGGSGGGGSGGGGSDIQMTQSPSSLPASLGDRVTINCQASQDISNYLNWYQQKPGKAPKLLIYYTNKLADGVPSRFSGSGSGRDSSFTISSLESEDIGSYYCQQYYNYPWTFGPGTKLEIKDYKDDDDK
0.001 absorbance (450 nm)			no binding	SC16.15 DLL3LH×CD3HL (bispecific antibody, the leader is left out here; Tested as HEK293T supernatant; also called SC16.15 DLL3LHxCD3HL BiTE) DIQMTQSPASLAASVGETVAITCRASENIYYNLAWYQQKQGKSPQLLIYTANSLEDGVPSRFSGSGSGTQYSLKINSMQPEDSATYFCKQAYDVPPTFGGGTKLEIKGGGGSGGGGSGGGGSQVQLQQSGAELAKPGASVKMSCKASGYTFTRYWIHWIKQRPGQGLEWIGYINPTTVYTEFNQNFKDKATLTADKSSTTASMQLSSLTSEDSAVYYCARGGSNFFDYWGQGTTLTVSSGGGGSEVQLVESGGGLVQPGKSLKLSCEASGFTFSGYGMHWVRQAPGRGLESVAYITSSSINIKYADAVKGRFTVSRDNAKNLLFLQMNILKSEDTAMYYCARFDWDKNYWGQGTMVTVSSGGGGSGGGGSGGGGSDIQMTQSPSSLPASLGDRVTINCQASQDISNYLNWYQQKPGKAPKLLIYYTNKLADGVPSRFSGSGSGRDSSFTISSLESEDIGSYYCQQYYNYPWTFGPGTKLEIKDYKDDDDK
